Laboratory results from the supplement of paper PMC9170038.

Tested on: K4 kissing-loop RNA reporter
Assay: apparent KD of K4 kissing-loop reporter; higher = weaker reporter binding
Conditions: Eterna round: R107
Protocol: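 RNA-MaP round R107: designed RNA switches with theophylline, tryptophan, arginine or FMN aptamers are transcribed on-chip within common flanks. They are titrated with a labelled K4 kissing-loop RNA reporter in RNA-MaP buffer (100 mM Tris pH 7.5, 80 mM KCl, 4 mM MgCl2), without ligand or with the indicated ligand. Median apparent KD per design.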

[1] = input ligand: theophylline 20 uM
[2] = input ligand: tryptophan 2.4 mM
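Also: bound reporter read as fluorescence of individual clusters on recovered sequencing chips by microscopy, with normalized cluster intensities fitted with a binding model.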

Sequence	apparent KD of K4 kissing-loop reporter (input ligand: FMN 200 uM) [µM]	apparent KD of K4 kissing-loop reporter (input ligand: arginine 13.2 mM) [µM]	apparent KD of K4 kissing-loop reporter (input ligand: none) [µM]	apparent KD of K4 kissing-loop reporter [1] [µM]	apparent KD of K4 kissing-loop reporter [2] [µM]
UGAUAGGACAGAAGGAGCGGAGCUGGUCAAAGACCAGCAAUACGUUGAAAAGGAGUGAUGUUCCAGGUAGGUCGCUGUCCUAUCU [ArgBX 27 #SwitchBubble #StaticStem]	0.0935	0.103	0.106	0.133	0.0852
UGAUAGGACAGAAGGAGCGGGAGUGAUGUUCCCAAAAGGAUAAGGUGUCAAAAGACACCCUCCCAGGUAGGUCGCUGUCCUAUCU	0.577	0.311	0.663	0.532	0.544
UGAUCUGCAGUGAUGUUGCAGUAGCUGUCAGAGGAUAUCAGACUCAUGAGAAGGCUGACAAUGUCUAACAGCACAAUGCUGUUCA [FMN A SS t6]	0.156	0.156	0.166	0.197	0.146
UGAUUUAACUGAAGGAGCGGCAAUUGAUAAGUAAAUAUAGUGAUGUUAUAUAAGAGAGAGAGCCAGGUAGGUCGCAGAGGGAGGA [ExArgB.I]	0.205	0.138	0.167	0.17	0.14
UGCAGUGAUGUUGCGAGUGGCAGAUACGAAGGAGCGUGGUGAGACACAGGUAGGUCGCGUAUUGAAAUUGCUGUCACUAAAAUGC [#7]	0.448	0.469	0.505	0.483	0.362
UGCCGCAAGGCGAGCGCUCCCACUCCGGAAGGAGCGCCCGGAAGGGCAGGUAGGUCGCCGGAGUGAUGUUCCGGUGGAGGGCUCG [#2 Exclusion - Arginine A Attempt #26 (Inspired by Omei)]	0.462	0.165	0.358	0.337	0.297
UGCUUUAUCAGAAGGAGCGCGUAAGUUAUACUAAUAAUCAGUGAUGUUGAUAUAUGAUCUUUGCAGGUAGGUCGCUGAUAUAGCU [KL-XARG-B4]	0.452	0.419	0.532	0.467	0.472
UGGAGUUGACGAAAAGUCAACUCCUGAGAAGGAGCGCACGAAAGUGCAGGUAGGUCGCUCUACCAGUGAUGUUGGUACUUAAUAA [#OpenEnded 6]	0.0921	0.17	0.117	0.162	0.0845
UGGAGUUGACGAAAAGUCAACUCCUGAGAAGGAGCGGACGAAAGUCCAGGUAGGUCGCUCACUACCAGUGAUGUUGGUAAUUCAA [#OpenEnded 3]	0.269	0.284	0.277	0.272	0.234
UGGAGUUGACGAAAAGUCAACUCCUGAGAUACCAGUGACGAAAGUCACCCUUGGCAGCUCACUGCCAGUGAUGUUGGUUCAUAAG [#03 K4 Theophylline A Same State]	0.223	0.197	0.152	0.245	0.142
UGGAGUUGACGAAAAGUCAACUCCUGGGAAGGAGCGGACGAAAGUCCAGGUAGGUCGCCCACUACCAGUGAUGUUGGUACCUAAA	0.274	0.32	0.257	0.307	0.206
UGGAUAUCGUUUAGUCUGGUGAGGUCAGAUACCAGACUAGCGAUAGUCCCUUGGCAGCUGAUUAUGAUUGAGUGAUGUUCAAUCG [Theo A Ex t9a]	0.179	0.154	0.175	0.18	0.18
UGGCGACUGCCAGUGAUGUUGGCCGUCGUACGAGGACCGGUACGGCCGCCACUCGUCCUGGUUUAGGCUCCGCCUUCACAUCAGG [Beterire]	0.401	0.326	0.393	0.784	0.309
UGGGCCGCCUGAGGAUAUAGAGACGAGUGAUGUUCGUGGAUCAGAGCCAGUGAUGUUGGGUUAUUUCUAGAAGGCGGGCGAACUU [Exclusion FMN B GF10]	0.116	0.112	0.12	0.118	0.12
UGGGUGUAGUGAUGUUAUAUAGAGAGUGAUACCAGUUUAGAGAAGAACCCUUGGCAGCAUAGAAGAGUAUCAUUGGAGAAGAAUG [ExTheophyl.As]	0.459	0.348	0.422	0.378	0.339
UGGUUUAACUGAAGGAGCGGCAAUUGAUAAGUAGAUAUAGUGAUGUUAUAUAAGAUAGAGAGCCAGGUAGGUCGCAGAGGUGUUU [ExArgB.Q]	0.208	0.204	0.232	0.253	0.189
UGUACCGAGUCAGGAUAUGGCGUCGAAAGACGAAUCUUAGUGAUGUUAGGGAUCUGCGAAAGCAGUCCAGAAGGGACUUGGUACU [FmnBS 26 U37]	0.568	0.583	0.768	0.605	0.901
UGUACCGAGUCAGGAUAUGGCGUCGAAAGACGAAUGCUAGUGAUGUUAGGGAUCUGCGAAAGCAGUCCAGAAGGGACUUGGUACU [FmnBS 26 G36]	0.381	0.471	0.653	0.634	0.649
UGUCAUGGAAACAUGAACGUUAAAAUAAAUCGAGGACCGGUACGGCCGCCACUCGUAUAGCGGUCAGUGAUGUUGACUGUAGUAA [KL-SSTryp-A form2 sub8]	0.0992	0.116	0.108	0.116	0.0968
UGUCAUUGGUCGGCCGCCACUAGGACCGGGUAUAGCCUAGUGAUGUUAGUAAGUACGGCCGCCACUAGGACCGGGACCGAUGACU [KL-SSTryp-B21 #DoubleAptamer]	0.742	0.057	0.591	0.674	0.131
UGUCAUUGGUCGGCCGCCACUGAAAUAAAAGAGUGAUGUUCUUAAAAGACGGACAAAGUCUGUCAUAGGACCGGGACCGAUGACU [TrypBS 24 #SwitchBubble #StaticStem]	0.662	0.558	0.473	0.369	0.38

Sequence	apparent KD of K4 kissing-loop reporter (input ligand: FMN 200 uM) [µM]	apparent KD of K4 kissing-loop reporter (input ligand: arginine 13.2 mM) [µM]	apparent KD of K4 kissing-loop reporter (input ligand: none) [µM]	apparent KD of K4 kissing-loop reporter [1] [µM]	apparent KD of K4 kissing-loop reporter [2] [µM]
UGUCAUUGGUCGGCCGCCACUUCAAGGUCAAAGACCAAAGAGUGAUGUUCUAAGACGAAAGUCAGAAGGACCGGGACCGAUGACU [TrypBS 10 #SwitchBubble #K4Middle]	0.168	0.0677	0.128	0.223	1.22
UGUCAUUGGUCGGCCGCCACUUCAUGUAGAGUGAUGUUUUGUAGGACGGAUCGAAAGAUCUGUCGAAGGACCGGGACCGAUGACU [FiskerMod 15 - Jieux - Same State - Tryptophan B]	0.233	0.0847	0.197	0.235	1.04
UGUCAUUGGUCGGCCGCCACUUCGUGUAGAGUGAUGUUUUGUAGGACGGAUCGAAAGAUCUGUCGGAGGACCGGGACCGAUGACU [FiskerMod 17 - Jieux - Same State - Tryptophan B]	0.228	0.139	0.408	0.481	0.889
UGUCAUUGGUCUGAUACCAGUCCCUUGGCAGCCUAAAGGAGUGAUGUUCCAAGGAUACCAGACCCUUGGCAGCAGACCGAUGACU [TheoBS 28 #DoubleAptamer #SwitchBubble]	0.351	0.312	0.36	0.26	0.354
UGUCAUUGGUCUGAUACCAGUUAGCGCGAUAAGCGCAAAACUGGAGUGAUGUUCCCAAAUAACCCUUGGCAGCAGACCGAUGACU [MAT - Same State Theophlline B - Mod of Eli - D13]	0.337	0.155	0.235	0.189	0.176
UGUGAACAAAAGUAGAGUGGACCACUAUAGCGAGGACCGGUACGGCCGCCACUCGUACAUGAAUUCAGUGAUGUUGAAAAGAGCU [whbob_EX_Tryp_A_t13]	0.294	0.413	0.307	0.4	0.209
UGUGAACAAAAGUAGAGUGGACCACUAUAGCGAGGACCGGUACGGCCGCCACUCGUACAUGAAUUCAGUGAUGUUGAAAUGAGCU [whbob_EX_Tryp_A_t14]	0.234	0.36	0.334	0.426	0.213
UGUGAUGUGUAGUGUUAUGUUUUGCGGGAUACCAGAGUCUUUUUAUUCCCUUGGCAGCUUGAGUGAUGUUUGAUGCUGUUCUUGU [cxxdmullin]	0.453	0.349	0.439	0.41	0.352
UGUGAUGUUGUGAUGUUUAGUGUUGUUGGGCAGGAUAUUGUAGAGGCGAGAAGGGCUUGUGUGAUGUAUGAGUGAUGUUUGUAGU [cffdmullin]	0.177	0.0896	0.127	0.142	0.119
UGUGCCAAAUGUGAUACCAGCAUCCUGCAGUGAUGUUGCAUACGAGUGAUGUUCGUCCGAUGCCCUUGGCAGCGCAGUAGUUUGA [Same State Theophylline B GF 26]	0.264	0.263	0.307	0.326	0.239
UGUGUUGUUGUGAUGUUUGGUGUUGUAGGGCAGGAUAUCGUAGAGGCGAGAAGGGCUUGUGGGCGGUAUGAGUGAUGUUUGUAGG [cfiuxmullin]	0.116	0.0776	0.124	0.143	0.101
UUAACCAACAGCGAUACCAGCGUGGAGUGAUGUUCCGAGGAUCGGAGUGAUGUUCCGAAGCGCCCUUGGCAGCGCAGAAGCGCAA [Exclusion Theophylline B GF8]	0.193	0.148	0.241	0.251	0.255
UUAAUAUUGUCGGCCGCCACUGGAUAGUAAUUUGUAUAAUCUAUUUCAAAGUGAUGUUUUGAGUCCAGGACCGGGACAUUUGAUA [JR_Nu_ExcTryptoB_Sub030]	0.503	0.363	0.455	0.406	0.297
UUAGAGAUCUCAGGAUAUCAGUGAUGUUGAGAUUCAGAUCUGAGAUAGAAUUCUAUCUCAGAUCAAUGAGAAGGGAGAUCUCAUU [AK4.4 Exc FMN B]	0.463	0.54	0.649	0.699	0.443
UUAGAUCUUCUAGAUACCAGUCUGUGUAUCAAUGAUACACUUGACUGAGUGAUGUUCAGAGGCCCUUGGCAGCUAGAAGAUCAUU [AK1 SS Theophylline B]	0.761	0.473	0.727	0.849	0.49
UUAGGAGUGGAAGGAUAUCCUGGUGUGGGUGAUGUUAGUGAUGUUGAAAGUGCAGUGAUGUUGUGCGGAGAAGGUCCGGUGUUGA [BDazzled - #8 - Exc. FMN B]	0.147	0.124	0.176	0.243	0.145
UUAGUUAGAUUAUUAUUAGCCUACAAUGCUAAGGAUAUCCGAAUUCGGAGAAGGUAGUGAUGUUACUUAAGUAGGCACUAACAUU [AK7 Exc FMN A]	0.257	0.745	0.932	0.925	0.671
UUAUCAUCAGCGGCCGCCACUGCAAAUUGGAGUGAUGUUCCAAGCGUGGAUAAUGAAAUCACUAGUAGGACCGGGUUGAUGAAUU [AK 1 Ex Trypt B]	0.309	0.231	0.27	0.254	0.306
UUGACCUACUCAGGAUAUCCGCAGUGAUGUUGCGGUUGGCCUGAGCGGCAUGAAAAUCUUACUACAGGAGAAGGGAGAGGGUUAC [Atusgeis]	0.117	0.0856	0.0826	0.0729	0.086
UUGAGCCGGACUUAAGUCCGGCUCUGCGAGCGAGGACCGGUACGGCCGCCACUCGGUGCAGUGAUGUUGCAUGGCCGCAAGGCCG [#2 Exclusion - Tryptophan A Attempt #11 (HarryS)]	0.269	0.209	0.298	0.231	0.296
UUGAGCCUGACGGAAGUCAGGCUCUGCGAGCGAGGACCGGUACGGCCGCCACUCGGUGCAGUGAUGUUGCAUGGCCGCAAGGCCG [#2 Exclusion - Tryptophan A Attempt #16 (HarryS)]	0.311	0.29	0.352	0.311	0.42
